Test results from US20250145694A1 (GUANGDONG FEIPENG BIOLOGICAL, published 2025).

Molecular target: T1, CTNI quality control recombinant antigen (human, UniProt P19429 1-210, limits assumed)
T1 construct: Recombinant antigen produced by the applicant; also called CTNI quality control recombinant protein (antigen produced by the company); cardiac troponin I
Assay: BLI, antibody on AMC sensor, cTnI in solution
Method: With an AMC sensor, the purified antibody was diluted to 10 μg/ml with PBST, and CTNI quality control recombinant protein (antigen produced by the company) was gradient diluted with PBST to 769.2 nmol/ml, 384.6 nmol/ml, 192.3 nmol/ml, 96.2 nmol/ml, 48.1 nmol/ml, 24 nmol/ml, 12 nmol/ml, and 0 nmol/ml.

T1 sequence (P19429 whole entry): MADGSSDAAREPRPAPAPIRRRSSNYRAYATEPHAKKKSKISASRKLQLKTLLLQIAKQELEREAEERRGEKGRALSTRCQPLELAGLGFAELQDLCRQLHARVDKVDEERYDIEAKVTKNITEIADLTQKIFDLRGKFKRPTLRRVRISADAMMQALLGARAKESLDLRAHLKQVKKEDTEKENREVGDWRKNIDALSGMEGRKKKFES

Binder | Kd [nM] | koff [s⁻¹] | kon [M⁻¹ s⁻¹]
Mutation 1-9 (antibody, assembled FR/CDR/constant) heavy: EVQMVESGGGLLKPGGSLKLSCAASGFTFSNYAMSWVRQTPEKRLEWVATISSGGSYSFYPDSVKGRFTISRDNAKNTLYLQMLSLRSEDTAMYYCARRDNYYGSTFMDYWGQGSSVTVSSAKTTPPSVYPLAPGSAAQTNSMVTLGCLVKGYFPEPVTVTWNSGSLSSGVHTFPAVLQSDLYTLSSSVTVPSSTWPSQTVTCNVAHPASSTKVDKKIVPRDCGCKPCICTVPEVSSVFIFPPKPKDVLTITLTPKVTCVVVDISKDDPEVQFSWFVDDVEVHTAQTKPREEQFNSTFRSVSELPIMHQDWLNGKEFKCRVNSAAFPAPIEKTISKTKGRPKAPQVYTIPPPKEQMAKDKVSLTCMITNFFPEDITVEWQWNGQPAENYKNTQPIMDTDGSYFVYSKLNVQKSNWEAGNTFTCSVLHEGLHNHHTEKSLSHSPG light: DIQMTQTSSSLSASLGDRVTISCRASQDITNYLNWYQQKPDGTIKLLIYYTSRLHSGVSSRFSGSGSGTDYSLTISNLEQEDIATYFCQQGNTLPLTFDTGTKLELKRADAAPTVSIFPPSSEQLTSGGASVVCFLNNFYPKDINVKWKIDGSERQNGVLNSWTDQDSKDSTYSMSSTLTLTKDEYERHNSYTCEATHKTSTSPIVKSFNRNEC | 8.6 | 0.000184 | 21400
Mutation 1-11 (antibody, assembled FR/CDR/constant) heavy: not shown light: DIQMTQTSSSLSASLGDRVTISCRASQDITNYLNWYQQKPDGTIKLLIYYTSRLHSGVSSRFSGSGSGTDYSLTISNLEQEDIATYFCQQGNTIPLTFDTGTKLELKRADAAPTVSIFPPSSEQLTSGGASVVCFLNNFYPKDINVKWKIDGSERQNGVLNSWTDQDSKDSTYSMSSTLTLTKDEYERHNSYTCEATHKTSTSPIVKSFNRNEC | 4.4 | 4.75e-05 | 10800
Mutation 1-13 (antibody, assembled FR/CDR/constant) heavy: EVQMVESGGGLLKPGGSLKLSCAASGFTFSNYAMSWVRQTPEKRLEWVATISSGGSYSFYPDSVKGRFTISRDNAKNTLYLQMLSLRSEDTAMYYCARRDNYPGSSFMDYWGQGSSVTVSSAKTTPPSVYPLAPGSAAQTNSMVTLGCLVKGYFPEPVTVTWNSGSLSSGVHTFPAVLQSDLYTLSSSVTVPSSTWPSQTVTCNVAHPASSTKVDKKIVPRDCGCKPCICTVPEVSSVFIFPPKPKDVLTITLTPKVTCVVVDISKDDPEVQFSWFVDDVEVHTAQTKPREEQFNSTFRSVSELPIMHQDWLNGKEFKCRVNSAAFPAPIEKTISKTKGRPKAPQVYTIPPPKEQMAKDKVSLTCMITNFFPEDITVEWQWNGQPAENYKNTQPIMDTDGSYFVYSKLNVQKSNWEAGNTFTCSVLHEGLHNHHTEKSLSHSPG light: DIQMTQTSSSLSASLGDRVTISCRASQEITNYLNWYQQKPDGTIKLLIYYTSRIHSGVSSRFSGSGSGTDYSLTISNLEQEDIATYFCQQGNTIPLTFDTGTKLELKRADAAPTVSIFPPSSEQLTSGGASVVCFLNNFYPKDINVKWKIDGSERQNGVLNSWTDQDSKDSTYSMSSTLTLTKDEYERHNSYTCEATHKTSTSPIVKSFNRNEC | 4.12 | 0.000354 | 86000
Mutation 1-14 (antibody, assembled FR/CDR/constant) heavy: EVQMVESGGGLLKPGGSLKLSCAASGFTYSNYAMSWVRQTPEKRLEWVATISSGGSYSFYPDSVKGRFTISRDNAKNTLYLQMLSLRSEDTAMYYCARRDNYFGSTFMDYWGQGSSVTVSSAKTTPPSVYPLAPGSAAQTNSMVTLGCLVKGYFPEPVTVTWNSGSLSSGVHTFPAVLQSDLYTLSSSVTVPSSTWPSQTVTCNVAHPASSTKVDKKIVPRDCGCKPCICTVPEVSSVFIFPPKPKDVLTITLTPKVTCVVVDISKDDPEVQFSWFVDDVEVHTAQTKPREEQFNSTFRSVSELPIMHQDWLNGKEFKCRVNSAAFPAPIEKTISKTKGRPKAPQVYTIPPPKEQMAKDKVSLTCMITNFFPEDITVEWQWNGQPAENYKNTQPIMDTDGSYFVYSKLNVQKSNWEAGNTFTCSVLHEGLHNHHTEKSLSHSPG light: DIQMTQTSSSLSASLGDRVTISCRASQDITNYLNWYQQKPDGTIKLLIYYTSRLHSGVSSRFSGSGSGTDYSLTISNLEQEDIATYFCQQGHTIPLTFDTGTKLELKRADAAPTVSIFPPSSEQLTSGGASVVCFLNNFYPKDINVKWKIDGSERQNGVLNSWTDQDSKDSTYSMSSTLTLTKDEYERHNSYTCEATHKTSTSPIVKSFNRNEC | 7.76 | 0.000498 | 64200
Mutation 1-10 (antibody, assembled FR/CDR/constant) heavy: EVQMVESGGGLLKPGGSLKLSCAASGFTYSNYAMSWVRQTPEKRLEWVATISSGGSYSFYPDSVKGRFTISRDNAKNTLYLQMLSLRSEDTAMYYCARRDNYYGSSFMDYWGQGSSVTVSSAKTTPPSVYPLAPGSAAQTNSMVTLGCLVKGYFPEPVTVTWNSGSLSSGVHTFPAVLQSDLYTLSSSVTVPSSTWPSQTVTCNVAHPASSTKVDKKIVPRDCGCKPCICTVPEVSSVFIFPPKPKDVLTITLTPKVTCVVVDISKDDPEVQFSWFVDDVEVHTAQTKPREEQFNSTFRSVSELPIMHQDWLNGKEFKCRVNSAAFPAPIEKTISKTKGRPKAPQVYTIPPPKEQMAKDKVSLTCMITNFFPEDITVEWQWNGQPAENYKNTQPIMDTDGSYFVYSKLNVQKSNWEAGNTFTCSVLHEGLHNHHTEKSLSHSPG light: DIQMTQTSSSLSASLGDRVTISCRASQDITNYLNWYQQKPDGTIKLLIYYTSRIHSGVSSRFSGSGSGTDYSLTISNLEQEDIATYFCQQGHTLPLTFDTGTKLELKRADAAPTVSIFPPSSEQLTSGGASVVCFLNNFYPKDINVKWKIDGSERQNGVLNSWTDQDSKDSTYSMSSTLTLTKDEYERHNSYTCEATHKTSTSPIVKSFNRNEC | 5.05 | 0.000346 | 68500

Binders with a lower Kd, results first:

Kd [nM] | koff [s⁻¹] | kon [M⁻¹ s⁻¹] | Binder
3.8 | 0.000145 | 38100 | Mutation 1-15 (antibody, assembled FR/CDR/constant) heavy: EVQMVESGGGLLKPGGSLKLSCAASGFTFSNYAMSWVRQTPEKRLEWVATISSGGSYSYYPDSVKGRFTISRDNAKNTLYLQMLSLRSEDTAMYYCARRDNYFGSSFMDYWGQGSSVTVSSAKTTPPSVYPLAPGSAAQTNSMVTLGCLVKGYFPEPVTVTWNSGSLSSGVHTFPAVLQSDLYTLSSSVTVPSSTWPSQTVTCNVAHPASSTKVDKKIVPRDCGCKPCICTVPEVSSVFIFPPKPKDVLTITLTPKVTCVVVDISKDDPEVQFSWFVDDVEVHTAQTKPREEQFNSTFRSVSELPIMHQDWLNGKEFKCRVNSAAFPAPIEKTISKTKGRPKAPQVYTIPPPKEQMAKDKVSLTCMITNFFPEDITVEWQWNGQPAENYKNTQPIMDTDGSYFVYSKLNVQKSNWEAGNTFTCSVLHEGLHNHHTEKSLSHSPG light: DIQMTQTSSSLSASLGDRVTISCRASQEITNYLNWYQQKPDGTIKLLIYYTSRIHSGVSSRFSGSGSGTDYSLTISNLEQEDIATYFCQQGNTLPLTFDTGTKLELKRADAAPTVSIFPPSSEQLTSGGASVVCFLNNFYPKDINVKWKIDGSERQNGVLNSWTDQDSKDSTYSMSSTLTLTKDEYERHNSYTCEATHKTSTSPIVKSFNRNEC
1.52 | 0.000135 | 88600 | Mutation 1-12 (antibody, assembled FR/CDR/constant) heavy: EVQMVESGGGLLKPGGSLKLSCAASGFTYSNYAMSWVRQTPEKRLEWVATISSGGSYSYYPDSVKGRFTISRDNAKNTLYLQMLSLRSEDTAMYYCARRDNYPGSTFMDYWGQGSSVTVSSAKTTPPSVYPLAPGSAAQTNSMVTLGCLVKGYFPEPVTVTWNSGSLSSGVHTFPAVLQSDLYTLSSSVTVPSSTWPSQTVTCNVAHPASSTKVDKKIVPRDCGCKPCICTVPEVSSVFIFPPKPKDVLTITLTPKVTCVVVDISKDDPEVQFSWFVDDVEVHTAQTKPREEQFNSTFRSVSELPIMHQDWLNGKEFKCRVNSAAFPAPIEKTISKTKGRPKAPQVYTIPPPKEQMAKDKVSLTCMITNFFPEDITVEWQWNGQPAENYKNTQPIMDTDGSYFVYSKLNVQKSNWEAGNTFTCSVLHEGLHNHHTEKSLSHSPG light: DIQMTQTSSSLSASLGDRVTISCRASQEITNYLNWYQQKPDGTIKLLIYYTSRLHSGVSSRFSGSGSGTDYSLTISNLEQEDIATYFCQQGHTLPLTFDTGTKLELKRADAAPTVSIFPPSSEQLTSGGASVVCFLNNFYPKDINVKWKIDGSERQNGVLNSWTDQDSKDSTYSMSSTLTLTKDEYERHNSYTCEATHKTSTSPIVKSFNRNEC
